The results in this text go back to patent US20240175869A1 (BROWN UNIVERSITY, published 2024).

The term EC50 denotes the concentration giving half of the maximal effect.

In experiment [1] the target is T1, ALK6.
T1 construct: Soluble ALK6 titrated at 3.125-100 nM over immobilized MuSK constructs; That is inferred from the anti-human IgG Fc detection antibody; also called BMPR1b; BMPR1B
Kind of experiment: solid-phase binding assay, half max as printed (FIG. 9).

Experiment [2] has as its target T1, ALK6. Kind of experiment: solid-phase binding assay, ALK6 at 100 nM, FL ECD against ΔIg2 (FIG. 7).

T1 sequence (O00238 whole entry, the tested form may be a part): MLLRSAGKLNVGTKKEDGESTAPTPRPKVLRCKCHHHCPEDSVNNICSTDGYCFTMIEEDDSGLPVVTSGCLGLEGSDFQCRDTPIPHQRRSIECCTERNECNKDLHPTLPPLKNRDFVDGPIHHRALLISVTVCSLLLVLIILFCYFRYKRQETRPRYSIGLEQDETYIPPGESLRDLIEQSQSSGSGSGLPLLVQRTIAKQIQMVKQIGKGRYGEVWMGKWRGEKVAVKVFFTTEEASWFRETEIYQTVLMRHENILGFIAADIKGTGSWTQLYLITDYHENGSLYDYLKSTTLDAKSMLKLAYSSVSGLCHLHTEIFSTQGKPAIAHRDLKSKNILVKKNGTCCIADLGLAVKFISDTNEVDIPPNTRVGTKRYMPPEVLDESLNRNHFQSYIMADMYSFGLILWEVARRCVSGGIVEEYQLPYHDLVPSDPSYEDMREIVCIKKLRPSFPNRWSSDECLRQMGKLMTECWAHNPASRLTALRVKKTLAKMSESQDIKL

B1: full-length ectodomain (FL ECD) of MuSK, His-tagged (receptor)
chain: EKLPKAPVITTPLETVDALVEEVATFMCAVESYPQPEISWTRNKILIKLFDTRYSIRENGQLLTILSVEDSDDGIYCCTANNGVGGAVESCGALQVKMKPKITRPPINVKIIEGLKAVLPCTTMGNPKPSVSWIKGDSALRENSRIAVLESGSLRIHNVQKEDAGQYRCVAKNSLGTAYSKLVKLEVEVFARILRAPESHNVTFGSFVTLRCTAIGMPVPTISWIENGNAVSSGSIQENVKDRVIDSRLQLFITKPGLYTCIATNKHGEKFSTAKAAATVSIAEWSKSQKESKGYCAQYRGEVCDAVLVKDSLVFFNTSYPDPEEAQELLIHTAWNELKAVSPLCRPAAEALLCNHLFQECSPGVLPTPMPICREYCLAVKELFCAKEWLAMEGKTHRGLYRSGMHFLPVPECSKLPSMHQDPTACTRLPYLDYKKENITTFPSITSSKPSVDIPNLPASTSSFAVSPAYSMT
The molecule B1 gave an EC50 in experiment [1] of around 0.5 nM. Moreover, the “fold increase in absorbance against ΔIg2 MuSK” value in experiment [2] is 6.6 fold.
